± gives the standard error. Variants at the floor of the assay were thinned out.
B1: glmS ribozyme (parent)
chain: AUAAAAGCGCCAGAACUACAGAAAUGUAGUUGACGAGGAGGAGGUUUAUCGAAUUUUCGGCGGAUGCCUCCAAA

Legend:
Conditions in all cases: with glucosamine-6-phosphate
glucosamine-6-phosphate [1] = variants of: B1; assay: self-cleavage kobs at 160 uM GlcN6P; higher = faster cleavage; RNA array
Method in brief: (§1)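 Tiles of sequenced MiSeq chips were imaged over ~14 h at 37 °C. On them, barcoded ribozyme variants had been transcribed in situ by E. coli RNA polymerase and were tracked via a hybridised Cy3 probe while glucosamine-6-phosphate (40 μM to 10 mM) in HEPES/KCl/Mg(OAc)2 buffer flowed in. Per-tile medians, normalised to baseline and to non-cleaving reference variants, were fit to one- or two-exponential decays for kobs, and weighted Michaelis–Menten fits gave kcat and KM.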

glucosamine-6-phosphate [2] = variants of: B1; assay: self-cleavage kobs at 2500 uM GlcN6P; higher = faster cleavage; RNA array
Method in brief: as §1

glucosamine-6-phosphate [3] = variants of: B1; assay: self-cleavage kobs at 640 uM GlcN6P; higher = faster cleavage; RNA array
Method in brief: as §1

glucosamine-6-phosphate [4] = variants of: B1; assay: self-cleavage kobs at 10000 uM GlcN6P; higher = faster cleavage; RNA array
Method in brief: as §1

Row | Variant | self-cleavage kobs at 160 uM GlcN6P (glucosamine-6-phosphate [1]) [s⁻¹] | self-cleavage kobs at 2500 uM GlcN6P (glucosamine-6-phosphate [2]) [s⁻¹] | self-cleavage kobs at 640 uM GlcN6P (glucosamine-6-phosphate [3]) [s⁻¹] | self-cleavage kobs at 10000 uM GlcN6P (glucosamine-6-phosphate [4]) [s⁻¹]
1 | G13A A33G G63C | < 1e-05 | < 1e-05 | – | –
2 | C11U U65C | < 1e-05 | – | – | –
3 | G13A G44U C61G U65A | < 1e-05 | < 1e-05 | < 1e-05 | –
4 | C10A C70A | 6.28e-05 ± 1.3e-05 | 6.82e-05 ± 1.9e-05 | 0.000194 ± 3.9e-05 | –
5 | G13U G43U | < 1e-05 | – | < 1e-05 | < 1e-05
6 | G13U G38U U65G | < 1e-05 | – | – | –
7 | C11A A48C | < 1e-05 | < 1e-05 | < 1e-05 | –
8 | C11G A12G G13C A14G | < 1e-05 | < 1e-05 | < 1e-05 | < 1e-05
9 | G13C U31G G43U | < 1e-05 | < 1e-05 | – | –
10 | C11U U47A | 9.6e-05 ± 3.1e-05 | 0.0014 ± 0.00025 | 0.000187 ± 4.3e-05 | 0.0016 ± 0.00047
11 | A14U A15G G35C | < 1e-05 | < 1e-05 | – | < 1e-05
12 | A15C C58U C61A | 0.0001 ± 4.6e-05 | – | 6.79e-05 ± 2.5e-05 | –
13 | C10G C11U G13C A36C G43C | < 1e-05 | < 1e-05 | < 1e-05 | –
14 | C10A A12G A15G C61A | < 1e-05 | – | – | –
15 | C10U A39U G59A C70U | < 1e-05 | < 1e-05 | – | –
16 | A15G A53G U65C | 6.49e-05 ± 1.6e-05 | 0.000485 ± 0.00011 | 0.000264 ± 6.9e-05 | –
17 | A12C A39G C70U | 0.000758 ± 0.00028 | – | – | –
18 | A12U C16A G41C | < 1e-05 | – | – | –
19 | C11U A14C A39G U69A | < 1e-05 | – | – | –
20 | C11U A42U | < 1e-05 | < 1e-05 | < 1e-05 | –
21 | G13A G51A C70A | 6.55e-05 ± 2.4e-05 | – | – | –
22 | G9U G37U C50U C67U | < 1e-05 | – | – | –
23 | C11U G43U A48G C71G | < 1e-05 | < 1e-05 | < 1e-05 | –
24 | A14G U55A A64C C70U | 3.8e-05 ± 1.7e-05 | 0.000958 ± 0.00021 | 0.000343 ± 8.3e-05 | 0.000686 ± 0.00019
25 | C10U A36G U46C | < 1e-05 | < 1e-05 | – | < 1e-05
26 | A14C G40U G43C C50U | < 1e-05 | < 1e-05 | – | –

Row | Variant | self-cleavage kobs at 160 uM GlcN6P (glucosamine-6-phosphate [1]) [s⁻¹] | self-cleavage kobs at 2500 uM GlcN6P (glucosamine-6-phosphate [2]) [s⁻¹] | self-cleavage kobs at 640 uM GlcN6P (glucosamine-6-phosphate [3]) [s⁻¹] | self-cleavage kobs at 10000 uM GlcN6P (glucosamine-6-phosphate [4]) [s⁻¹]
27 | C11G A39C G40U | < 1e-05 | < 1e-05 | < 1e-05 | –
28 | A15C G60C C61U | < 1e-05 | – | – | –
29 | C11A C34U G35C | < 1e-05 | < 1e-05 | – | –
30 | A12G G32A G35U C68G | < 1e-05 | – | – | –
31 | A12G G44C | < 1e-05 | < 1e-05 | < 1e-05 | –
32 | G9U C19A | < 1e-05 | – | – | –
33 | C10G U57C | < 1e-05 | < 1e-05 | < 1e-05 | < 1e-05
34 | A15C C16G C67G | < 1e-05 | – | – | –
35 | A14U U55A U69A | 0.000101 ± 2.7e-05 | 8.95e-05 ± 1.1e-05 | – | 4.58e-05 ± 2e-05
36 | C10G G66C | < 1e-05 | – | < 1e-05 | < 1e-05
37 | C11A A53C C67G | < 1e-05 | – | < 1e-05 | –
38 | C10U G51U | < 1e-05 | < 1e-05 | < 1e-05 | < 1e-05
39 | C10A C16G | < 1e-05 | – | – | < 1e-05
40 | A14U U65C U69C | < 1e-05 | – | – | –
41 | C10A A39U U69G | < 1e-05 | < 1e-05 | < 1e-05 | –
42 | A12G G51U G66A | < 1e-05 | < 1e-05 | – | –
43 | A14U G29A A52C C61U C68A C71G | 0.000123 ± 3.3e-05 | 0.00014 ± 5e-05 | 9.79e-05 ± 2.9e-05 | –
44 | C11G A12U G13U C58U C68G | 7.71e-05 ± 2.9e-05 | – | 0.000363 ± 0.00016 | –
45 | A14C A39G C58G G60U G62U | < 1e-05 | < 1e-05 | – | –
46 | A12U U45G U46G | 0.000419 ± 0.00015 | 0.00499 ± 0.0017 | – | –
47 | A14C G51A C58A C68G | 6.87e-05 ± 1.6e-05 | 8.83e-05 ± 2.5e-05 | 8.48e-05 ± 2.9e-05 | –
48 | C10G G13U A15C | < 1e-05 | – | < 1e-05 | –
49 | G13U G44U C68U | < 1e-05 | < 1e-05 | < 1e-05 | –
50 | A12G G41U C50U | < 1e-05 | < 1e-05 | < 1e-05 | –
51 | C11U A42U C68A | < 1e-05 | < 1e-05 | – | –
52 | G9U C61U | < 1e-05 | – | < 1e-05 | < 1e-05

Source: the supplement of paper PMC7125110
